The record followed here is patent US20230192881A1 (EDESA BIOTECH RESEARCH, published 2023).

Experiment [1] has as its target T1, human FcγRIIa 131R (human, UniProt P12318 36-218, limits assumed).
T1 sequence (looked up): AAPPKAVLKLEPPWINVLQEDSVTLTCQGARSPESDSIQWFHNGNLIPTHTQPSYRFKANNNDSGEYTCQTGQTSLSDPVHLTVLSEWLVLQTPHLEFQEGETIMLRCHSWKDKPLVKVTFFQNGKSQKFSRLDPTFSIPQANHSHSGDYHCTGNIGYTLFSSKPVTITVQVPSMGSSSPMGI
The experiment is described as follows: surface plasmon resonance (refers to Table 9).

The target in experiment [2] is T2, human TLR4 (human, UniProt O00206 24-839). The experiment is described as follows: cell-based or functional assay.
T2 sequence (O00206 24-839 limits assumed): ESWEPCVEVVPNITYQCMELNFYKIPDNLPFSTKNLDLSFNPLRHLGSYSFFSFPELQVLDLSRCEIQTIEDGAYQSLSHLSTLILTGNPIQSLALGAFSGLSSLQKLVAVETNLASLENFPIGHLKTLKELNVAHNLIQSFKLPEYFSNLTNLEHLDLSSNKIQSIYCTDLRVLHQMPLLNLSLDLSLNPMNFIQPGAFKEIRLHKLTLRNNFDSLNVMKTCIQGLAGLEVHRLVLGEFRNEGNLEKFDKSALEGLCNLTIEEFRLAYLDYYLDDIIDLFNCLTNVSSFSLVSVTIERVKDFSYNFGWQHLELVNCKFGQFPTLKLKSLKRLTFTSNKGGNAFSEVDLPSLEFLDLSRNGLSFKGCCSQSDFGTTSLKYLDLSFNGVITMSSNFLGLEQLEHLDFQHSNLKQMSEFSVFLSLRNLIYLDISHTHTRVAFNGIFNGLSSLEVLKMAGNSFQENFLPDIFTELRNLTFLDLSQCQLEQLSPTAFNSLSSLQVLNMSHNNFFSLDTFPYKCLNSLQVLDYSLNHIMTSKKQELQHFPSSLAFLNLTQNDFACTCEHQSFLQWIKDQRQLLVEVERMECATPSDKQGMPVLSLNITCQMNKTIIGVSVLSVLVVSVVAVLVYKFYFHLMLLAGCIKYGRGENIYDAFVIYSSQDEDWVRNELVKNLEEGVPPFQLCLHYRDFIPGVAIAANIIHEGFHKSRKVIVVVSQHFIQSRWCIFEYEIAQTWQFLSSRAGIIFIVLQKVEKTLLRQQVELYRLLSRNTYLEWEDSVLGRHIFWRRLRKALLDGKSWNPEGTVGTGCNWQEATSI
A further experiment concerns the target T3, human FcγRI (human, UniProt P12314 16-288, limits assumed).
T3 construct: also called CD64; FcyRI
In words: surface plasmon resonance.

The target of experiment [3] is T1, human FcγRIIa 131R. The experiment is described as follows: surface plasmon resonance.
A further experiment addresses T4, human FcγRIIb (human, UniProt P31994 43-217, limits assumed).
T4 construct: also called CD32b
T4 sequence (looked up): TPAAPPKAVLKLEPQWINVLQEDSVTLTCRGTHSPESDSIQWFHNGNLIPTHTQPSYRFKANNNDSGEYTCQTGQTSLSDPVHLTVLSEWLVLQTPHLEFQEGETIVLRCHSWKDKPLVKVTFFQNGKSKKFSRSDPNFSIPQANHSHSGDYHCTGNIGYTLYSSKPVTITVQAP
In words: surface plasmon resonance.

Another experiment addresses T5, human FcγRIIa 131H (human, UniProt P12318 36-218, limits assumed).
T5 sequence (looked up): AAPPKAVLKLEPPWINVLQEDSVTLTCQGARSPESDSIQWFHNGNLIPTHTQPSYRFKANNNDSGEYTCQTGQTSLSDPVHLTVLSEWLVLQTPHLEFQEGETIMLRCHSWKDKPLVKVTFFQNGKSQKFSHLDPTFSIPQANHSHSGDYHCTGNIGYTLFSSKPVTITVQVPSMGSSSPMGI
The experiment is described as follows: surface plasmon resonance.

Experiment [4] concerns the target T2, human TLR4. The experiment is described as follows: cell-based or functional assay. This is another data set of the same source.
Experiment [5] deals with T2, human TLR4. In words: KinExA combined with ELISA, average Kd.
Experiment [6] addresses T2, human TLR4. In words: KinExA.
Experiment [7] deals with T6, mouse TLR4 (mouse, UniProt Q9QUK6 26-629, limits assumed).
T6 sequence (looked up): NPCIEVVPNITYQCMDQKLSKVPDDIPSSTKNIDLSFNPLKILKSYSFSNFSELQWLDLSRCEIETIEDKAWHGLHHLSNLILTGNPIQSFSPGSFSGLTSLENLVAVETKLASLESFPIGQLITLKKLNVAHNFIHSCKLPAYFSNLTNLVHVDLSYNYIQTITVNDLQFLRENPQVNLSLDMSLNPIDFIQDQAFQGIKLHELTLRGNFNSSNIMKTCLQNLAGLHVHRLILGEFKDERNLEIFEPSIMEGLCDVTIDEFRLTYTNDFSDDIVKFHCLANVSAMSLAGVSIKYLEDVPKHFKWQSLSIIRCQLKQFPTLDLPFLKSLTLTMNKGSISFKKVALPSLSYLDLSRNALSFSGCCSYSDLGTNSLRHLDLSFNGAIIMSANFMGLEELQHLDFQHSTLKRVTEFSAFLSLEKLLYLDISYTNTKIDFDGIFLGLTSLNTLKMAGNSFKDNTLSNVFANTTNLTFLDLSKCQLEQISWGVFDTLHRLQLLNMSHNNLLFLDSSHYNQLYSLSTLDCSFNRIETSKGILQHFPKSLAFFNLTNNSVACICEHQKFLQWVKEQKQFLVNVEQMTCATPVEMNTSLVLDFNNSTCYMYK
The experiment is described as follows: method not stated, average Kd.

Experiment [8] addresses T6, mouse TLR4. The experiment is described as follows: cell-based or functional assay.
The next experiment concerns the target T7, mouse FcγRI (mouse, UniProt P26151 25-297, limits assumed).
T7 construct: also called mFcγRI; mouse FcyRI
T7 sequence (looked up): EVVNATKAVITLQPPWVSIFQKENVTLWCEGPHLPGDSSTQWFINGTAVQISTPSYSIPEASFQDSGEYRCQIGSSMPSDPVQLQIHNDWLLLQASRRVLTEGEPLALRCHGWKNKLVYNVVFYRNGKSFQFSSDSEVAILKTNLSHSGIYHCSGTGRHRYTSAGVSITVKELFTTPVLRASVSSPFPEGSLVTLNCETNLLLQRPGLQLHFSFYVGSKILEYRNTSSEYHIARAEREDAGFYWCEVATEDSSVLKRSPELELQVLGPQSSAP
The experiment is described as follows: method not stated.

A further experiment concerns the target T8, mouse FcRn (mouse, UniProt Q61559 22-297; P01887 21-119, limits assumed).
T8 construct: also called mFcRn
T8 sequence (looked up) 1: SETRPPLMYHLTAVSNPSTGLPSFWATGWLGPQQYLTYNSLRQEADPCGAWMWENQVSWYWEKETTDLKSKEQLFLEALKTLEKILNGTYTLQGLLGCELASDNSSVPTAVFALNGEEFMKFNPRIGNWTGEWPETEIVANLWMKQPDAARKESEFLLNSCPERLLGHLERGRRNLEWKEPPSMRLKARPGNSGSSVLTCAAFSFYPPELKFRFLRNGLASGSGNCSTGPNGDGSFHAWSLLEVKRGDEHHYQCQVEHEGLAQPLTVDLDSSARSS
T8 sequence (looked up) 2: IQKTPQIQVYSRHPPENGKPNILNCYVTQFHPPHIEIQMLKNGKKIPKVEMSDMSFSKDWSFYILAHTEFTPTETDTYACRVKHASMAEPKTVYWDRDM
The experiment is described as follows: method not stated.

For another experiment, the target named is T9, mouse FcγRIV (mouse, UniProt A0A0B4J1G0 21-203).
T9 construct: also called mFcγRIV
T9 sequence: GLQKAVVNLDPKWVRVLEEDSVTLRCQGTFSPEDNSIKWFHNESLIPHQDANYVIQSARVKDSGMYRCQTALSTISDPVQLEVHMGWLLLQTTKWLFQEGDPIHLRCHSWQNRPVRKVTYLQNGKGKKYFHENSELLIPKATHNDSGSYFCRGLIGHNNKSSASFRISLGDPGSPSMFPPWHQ
The experiment is described as follows: method not stated.

The next experiment has as its target T10, mouse FcγRIII (mouse, UniProt P08508 31-215, limits assumed).
T10 construct: also called mFcγRIII
T10 sequence (looked up): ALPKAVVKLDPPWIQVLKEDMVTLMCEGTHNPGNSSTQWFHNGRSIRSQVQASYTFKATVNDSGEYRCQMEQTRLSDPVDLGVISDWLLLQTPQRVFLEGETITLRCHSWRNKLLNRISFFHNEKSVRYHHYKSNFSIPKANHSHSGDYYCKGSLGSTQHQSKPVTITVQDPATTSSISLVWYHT
In words: method not stated.

The target of another experiment is T11, mouse FcγRII (mouse, UniProt P08101 30-210, limits assumed).
T11 construct: also called mFcγRII; mouse FcyRII
T11 sequence (looked up): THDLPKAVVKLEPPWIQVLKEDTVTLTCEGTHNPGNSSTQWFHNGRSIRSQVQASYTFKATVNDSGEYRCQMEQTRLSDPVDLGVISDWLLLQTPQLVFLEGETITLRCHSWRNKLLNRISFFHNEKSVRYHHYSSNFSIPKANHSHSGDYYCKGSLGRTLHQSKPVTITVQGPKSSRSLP
In words: method not stated.

“And” between values parts separate entries of the source, which are not always exact repeats. Equal entries are not always repeated.

T3 sequence (P12314 16-288 limits assumed): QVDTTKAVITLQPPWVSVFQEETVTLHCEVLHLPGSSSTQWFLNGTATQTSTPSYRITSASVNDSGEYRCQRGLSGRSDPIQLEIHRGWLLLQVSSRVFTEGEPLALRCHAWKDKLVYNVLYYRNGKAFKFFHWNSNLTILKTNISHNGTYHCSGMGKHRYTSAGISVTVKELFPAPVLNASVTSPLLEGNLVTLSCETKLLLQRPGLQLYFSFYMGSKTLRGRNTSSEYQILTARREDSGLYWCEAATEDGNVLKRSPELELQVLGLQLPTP

B1: NI-0101 (antibody, human IgG1, kappa)
heavy: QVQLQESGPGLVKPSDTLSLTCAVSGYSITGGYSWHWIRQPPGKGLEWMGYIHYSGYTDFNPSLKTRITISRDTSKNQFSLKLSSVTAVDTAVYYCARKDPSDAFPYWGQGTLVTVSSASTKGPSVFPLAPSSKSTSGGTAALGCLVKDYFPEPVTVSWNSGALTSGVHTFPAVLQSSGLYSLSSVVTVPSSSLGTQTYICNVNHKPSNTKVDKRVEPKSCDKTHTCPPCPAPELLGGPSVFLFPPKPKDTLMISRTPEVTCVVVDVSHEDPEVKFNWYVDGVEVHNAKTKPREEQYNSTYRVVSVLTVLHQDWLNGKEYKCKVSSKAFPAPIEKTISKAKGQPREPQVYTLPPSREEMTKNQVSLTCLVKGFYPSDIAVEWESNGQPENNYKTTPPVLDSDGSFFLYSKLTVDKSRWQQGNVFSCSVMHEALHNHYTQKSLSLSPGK
light: EIVLTQSPDFQSVTPKEKVTITCRASQSISDHLHWYQQKPDQSPKLLIKYASHAISGVPSRFSGSGSGTDFTLTINSLEAEDAATYYCQQGHSFPLTFGGGTKVEIKRTVAAPSVFIFPPSDEQLKSGTASVVCLLNNFYPREAKVQWKVDNALQSGNSQESVTEQDSKDSTYSLSSTLTLSKADYEKHKVYACEVTHQGLSSPVTKSFNRGEC
As to B1, the “fold higher affinity than to the 131H variant” value in the experiment with human FcγRIIa 131R [1] came out at 2 fold. Also, the “IC50, Blockade of LPS induced TLR4 signalling, human whole blood (FcγRIIaHH)” value with human TLR4 [2] was 2.19 nM and 324 ng/mL. Moreover, the dissociation constant (Kd) with human FcγRI is 47.3 nM. In the experiment with human FcγRIIa 131R [3], this molecule returned a Kd of 151 nM. Besides, the dissociation constant (Kd) in the experiment with human FcγRIIb is 870 nM. Binding with human FcγRIIa 131H was characterised by a dissociation constant (Kd) of 311 nM. In addition, in the experiment with human TLR4 [4], the “IC50, LPS mediated cytokine production in human primary macrophages” value is 0.0104 nM; the “IC50, LPS-induced IL-6 release in THP1 cells (FcγRIIa 131HH)” value amounted to 0.0027 nM; the “IC50, LPS-induced IL-6 release in U937 cells (FcγRIIa 131RR)” value was 0.002 nM; the “IC50, LPS-induced IL-6 release in human whole blood, FcγRIIa 131HH donors” value came to 2.19 nM. Besides, in the experiment with human TLR4 [4], the “IC50, LPS-induced IL-6 release in human whole blood, FcγRIIa 131RH donors” value turned out to be 0.223 nM; the “IC50, LPS-induced IL-6 release in human whole blood, FcγRIIa 131RR donors” value amounted to 0.128 nM; the “IC50, Tenascin-C mediated cytokine production in human primary macrophages” value was found to be 0.022 nM; the “IC50, nickel mediated cytokine production in human primary macrophages” value was determined as 0.015 nM. The Kd with human TLR4 [5] was determined as 0.139 nM.

B2: Hu 15C1 (antibody, V domains shown)
VH: QVQLQESGPGLVKPSDTLSLTCAVSGYSITGGYSWHWIRQPPGKGLEWMGYIHYSGYTDFNPSLKTRITISRDTSKNQFSLKLSSVTAVDTAVYYCARKDPSDAFPYWGQGTLVTVSS
VL: EIVLTQSPDFQSVTPKEKVTITCRASQSISDHLHWYQQKPDQSPKLLIKYASHAISGVPSRFSGSGSGTDFTLTINSLEAEDAATYYCQQGHSFPLTFGGGTKVEIK
notes: the rest is a non-mutated human IgG1 Fc
In the experiment with human TLR4 [6], B2 gave a dissociation constant (Kd) of 0.139 nM.

B3: 5E3 (antibody, mouse IgG2a, kappa)
heavy: QIQLVQSGPELKKPGESVKISCKASGYTFTDYVMYWVKQAPGKGLKWMGWINTNTGKPTYADDFKGRFVFSLEASASTANLQISNLKNEDTATYFCTRGNYPGLRVMDAWGQGASVTVSSAKTTAPSVYPLAPVCGDTTGSSVTLGCLVKGYFPEPVTLTWNSGSLSSGVHTFPAVLQSDLYTLSSSVTVTSSTWPSQSITCNVAHPASSTKVDKKIEPRGPTIKPCPPCKCPAPNLLGGPSVFIFPPKIKDVLMISLSPIVTCVVVDVSEDDPDVQISWFVNNVEVHTAQTQTHREDYNSTLRVVSALPIQHQDWMSGKEFKCKVNNKDLPAPIERTISKPKGSVRAPQVYVLPPPEEEMTKKQVTLTCMVTDFMPEDIYVEWTNNGKTELNYKNTEPVLDSDGSYFMYSKLRVEKKNWVERNSYSCSVVHEGLHNHHTTKSFSRTPGK
light: DIQMTQSPSSMSVSLGDTVTITCRASQDVGIYVNWFQQKPGKSPRRLIFRATNLADGVPSRFSGSRSGSDYSLTISSLGSEDVAGYHCLQYDEYPLTFGSGTKLEIKRADAAPTVSIFPPSSEQLTSGGASVVCFLNNFYPKDINVKWKIDGSERQNGVLNSWTDQDSKDSTYSMSSTLTLTKDEYERHNSYTCEATHKTSTSPIVKSFNRNEC
notes: Chimeric anti-mouse TLR4 mAb: rat variable regions grafted onto a mouse IgG2a kappa Fc
On to B3, for which the dissociation constant (Kd) was found to be 0.027 nM with mouse TLR4 [7]; 50.8 nM in the experiment with mouse FcγRI; 2.93 nM in the experiment with mouse FcRn; 113 nM with mouse FcγRIV; 505 nM with mouse FcγRIII; 3260 nM with mouse FcγRII. The “IC50, Blockade of LPS induced TLR4 signalling, mouse whole blood” value with mouse TLR4 [8] was 1.16 nM and 173 ng/mL.
